Experimental data reported in patent US20120316071A1 (published 2012).
One block for each binder: values may come before it.

Legend:
[1] = target: T1, rHuman ErbB2/Fc Chimera, CF (R&D Systems Cat#1129-ER) (human, UniProt P04626 23-652); experiment: MSD multispot ECL, antigen spotted on plate, Fab 11 nM; blank spot 212
T1 construct: Bought from R&D Systems; also called human epidermal growth factor 2 receptor (ErbB2); not shown: Fc of the bought chimera

[2] = target: T2, rHuman EGF R/Fc Chimera, CF (R&D Systems Cat#344-ER) (human, UniProt P00533 25-645); experiment: as above
T2 construct: Bought from R&D Systems; also called epidermal growth factor receptor (EGF R); not shown: Fc of the bought chimera

[3] = target: T3, rHuman P-Cadherin/Fc Chimera, CF (R&D Systems Cat#861-PC) (human, UniProt P22223 108-654); experiment: as above
T3 construct: Bought from R&D Systems; not shown: Fc of the bought chimera

[4] = target: T4, Recombinant Human DLL4 (R&D Systems Cat#1506-D4/CF) (human, UniProt Q9NR61 27-524); experiment: MSD Multispot ECL, antigen spotted on plate, Fab at 480 nM; blank spot 362
T4 construct: Bought recombinant protein; also called rHuman DLL4; delta-like protein 4

[5] = target: T5, rHuman Notch-1/Fc Chimera, CF (R&D Systems Cat#3647-TK) (human, UniProt P46531 19-526); experiment: as above
T5 construct: Bought Fc chimera; Fc part of the bought chimera not given

[6] = target: T6, rHuman CD44/Fc Chimera, CF (R&D Systems Cat#3660-CD) (human, UniProt P16070 21-220); experiment: as above
T6 construct: Bought Fc chimera; Fc part of the bought chimera not given

[7] = target: T7, rHuman P-Cadherin/Fc Chimera, CF (R&D Systems Cat#861-PC) (human, UniProt P22223 108-654); experiment: as above
T7 construct: Bought Fc chimera; Fc part of the bought chimera not given

[8] = target: T8, rHuman Erythropoietin R/Fc Chimera, CF (R&D Systems Cat#963-ER) (human, UniProt P19235 25-250); experiment: as above
T8 construct: Bought Fc chimera; also called EPO R/Fc; Epo R; Fc part of the bought chimera not given
T8 sequence (looked up): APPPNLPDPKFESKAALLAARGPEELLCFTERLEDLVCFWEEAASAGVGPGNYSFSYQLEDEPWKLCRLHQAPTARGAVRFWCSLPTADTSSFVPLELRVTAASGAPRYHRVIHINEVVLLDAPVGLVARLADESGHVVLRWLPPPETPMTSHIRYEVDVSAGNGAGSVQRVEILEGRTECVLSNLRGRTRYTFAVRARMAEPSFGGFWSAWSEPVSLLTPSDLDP

[9] = target: T9, rHuman Erythropoietin R/Fc Chimera, CF (R&D Systems Cat#963-ER) (human, UniProt P19235 25-250); experiment: ECL Multispot (MSD), antigen spotted; Fab 0.50 (µM); blank 142
T9 construct: Bought recombinant protein; also called EPO R; EPO R/Fc; Fc part of the bought chimera not given
T9 sequence (looked up): T8 sequence (looked up)

[10] = target: T10, Recombinant Human DLL4 (R&D Systems Cat#1506-D4/CF) (human, UniProt Q9NR61 27-529); experiment: as above
T10 construct: Bought recombinant protein; also called delta-like protein 4; rHuman DLL4

[11] = target: T11, rHuman ErbB2/Fc Chimera, CF (R&D Systems Cat#1129-ER) (human, UniProt P04626 23-652); experiment: as above
T11 construct: Bought recombinant protein; Fc part of the bought chimera not given

[12] = target: T12, rHuman EGF R/Fc Chimera, CF (R&D Systems Cat#344-ER) (human, UniProt P00533 25-645); experiment: as above
T12 construct: Bought recombinant protein; Fc part of the bought chimera not given

[13] = target: T13, rHuman HGF R/c-MET/Fc Chimera, CF (R&D Systems Cat#358-MT/CF) (human, UniProt P08581 25-932); experiment: as above
T13 construct: Bought recombinant protein; also called HGF R/Fc; Fc part of the bought chimera not given

[14] = target: T14, rHuman Notch-1/Fc Chimera, CF (R&D Systems Cat#3647-TK) (human, UniProt P46531 19-526); experiment: as above
T14 construct: Bought recombinant protein; Fc part of the bought chimera not given

[15] = target: T15, rHuman CD44/Fc Chimera, CF (R&D Systems Cat#3660-CD) (human, UniProt P16070 21-220); experiment: as above
T15 construct: Bought recombinant protein; Fc part of the bought chimera not given

[16] = target: T16, rHuman IGF-1 sR, CF (R&D Systems Cat#391-GR) (human, UniProt P08069 31-932); experiment: as above
T16 construct: Bought recombinant soluble receptor; also called insulin-like growth factor-1 soluble receptor

[17] = target: T17, rHuman P-Cadherin/Fc Chimera, CF (R&D Systems Cat#861-PC) (human, UniProt P22223 108-654); experiment: as above
T17 construct: Bought recombinant protein; Fc part of the bought chimera not given

[18] = target: T18, rHuman Erythropoietin R/Fc Chimera, CF (R&D Systems Cat#963-ER) (human, UniProt P19235 25-250); experiment: Multispot ECL (MSD) assay, antigen spotted on plate, Fab at 0.312 µM; blank spot 1977
T18 construct: Bought recombinant protein; also called EPO R/Fc; Epo R; Fc part of the bought chimera not given
T18 sequence (looked up): T8 sequence (looked up)

T13 sequence (P08581 25-932, change not shown): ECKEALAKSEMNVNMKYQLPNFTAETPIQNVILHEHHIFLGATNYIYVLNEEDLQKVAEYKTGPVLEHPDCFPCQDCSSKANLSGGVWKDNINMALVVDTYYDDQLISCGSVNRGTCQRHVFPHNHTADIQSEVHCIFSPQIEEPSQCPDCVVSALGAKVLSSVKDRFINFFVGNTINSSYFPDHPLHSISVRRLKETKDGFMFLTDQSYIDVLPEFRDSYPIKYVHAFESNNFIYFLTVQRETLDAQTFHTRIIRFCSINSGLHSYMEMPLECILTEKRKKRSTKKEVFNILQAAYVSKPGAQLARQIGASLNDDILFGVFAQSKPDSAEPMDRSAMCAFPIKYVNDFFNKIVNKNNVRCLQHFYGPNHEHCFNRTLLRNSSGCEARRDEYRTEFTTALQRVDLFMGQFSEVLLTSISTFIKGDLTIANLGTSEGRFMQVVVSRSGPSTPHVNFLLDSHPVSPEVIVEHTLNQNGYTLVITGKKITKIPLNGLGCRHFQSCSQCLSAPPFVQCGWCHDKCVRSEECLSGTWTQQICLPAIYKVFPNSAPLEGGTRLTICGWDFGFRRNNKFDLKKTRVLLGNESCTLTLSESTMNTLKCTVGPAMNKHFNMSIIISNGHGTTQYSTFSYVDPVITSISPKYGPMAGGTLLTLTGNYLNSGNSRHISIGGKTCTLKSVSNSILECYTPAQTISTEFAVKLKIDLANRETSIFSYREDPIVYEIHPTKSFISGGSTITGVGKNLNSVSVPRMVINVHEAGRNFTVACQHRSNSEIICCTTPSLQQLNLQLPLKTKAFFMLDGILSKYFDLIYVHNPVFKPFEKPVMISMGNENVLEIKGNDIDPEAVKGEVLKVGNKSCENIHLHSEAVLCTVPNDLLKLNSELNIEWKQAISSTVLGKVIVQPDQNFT

- ECL signal [1]: 216
- ECL signal [2]: 201
- ECL signal [3]: 270
B1: Fab VH1-46_IGHD3-10*01_IGHJ4*01 & B3_IGKJ1*01 (Fab, V domains shown)
VH: QVQLVQSGAEVKKPGASVKVSCKASGYTFTSYYMHWVRQAPGQGLEWMGIINPSGGSTSYAQKFQGRVTMTRDTSTSTVYMELSSLRSEDTAVYYCAREYYYGSGSYYNDYFDYWGQGTLVTVSS
VL: not shown
notes: Tested as a Fab made in E. coli; VH was cloned into Plasmid A (CH1 constant region, His6 and Flag tags); The kappa VL was cloned into Plasmid C (kappa CL)

- ECL signal [4]: 1530
- ECL signal [5]: 545
- ECL signal [6]: 541
- ECL signal [7]: 596
- ECL signal [8]: 621
B2: Fab VH6-1_IGHD3-3*01_IGHJ4*01 & V4-3_IGLJ4*01 (Fab, V domains shown)
VH: QVQLQQSGPGLVKPSQTLSLTCAISGDSVSSNSAAWNWIRQSPSRGLEWLGRTYYRSKWYNDYAVSVKSRITINPDTSKNQFSLQLNSVTPEDTAVYYCAREYYDFWSGYYTDYFDYWGQGTLVTVSS
VL: QPVLTQPTSLSASPGASARLTCTLRSGINLGSYRIFWYQQKPESPPRYLLSYYSDSSKHQGSGVPSRFSGSKDASSNAGILVISGLQSEDEADYYCMIWHSSASFVFGGGTQLIIL
notes: Tested as a purified germline Fab made in E. coli; The VH was cloned into plasmid A (CH1 constant region, His6 and Flag tags) and the lambda VL into plasmid E (lambda CL)

- ECL signal [9]: 235
- ECL signal [10]: 6670
- ECL signal [11]: 199
- ECL signal [12]: 152
- ECL signal [13]: 182
- ECL signal [14]: 230
- ECL signal [15]: 207
- ECL signal [16]: 190
- ECL signal [17]: 161
B3: Fab VH1-46_IGHD6-6*01_IGHJ1*01 S102A/S103P/S104F (APF) & L6_IGKJ1*01 (Fab, V domains shown)
VH: QVQLVQSGAEVKKPGASVKVSCKASGYTFTSYYMHWVRQAPGQGLEWMGIINPSGGSTSYAQKFQGRVTMTRDTSTSTVYMELSSLRSEDTAVYYCAREEYAPFSAEYFQHWGQGTLVTVSS
VL: not shown
notes: Tested as a Fab made in E. coli: VH cloned in Plasmid A (CH1 constant region, His6 and Flag tags), VL in Plasmid C (kappa constant region); also called H:APF & L:wt; APF triple mutant

- ECL signal [18]: 5020
B4: Fab VH1-46_IGHD7-27*01_IGHJ2*01 & L6_IGKJ1*01 (Fab, V domains shown)
VH: QVQLVQSGAEVKKPGASVKVSCKASGYTFTSYYMHWVRQAPGQGLEWMGIINPSGGSTSYAQKFQGRVTMTRDTSTSTVYMELSSLRSEDTAVYYCARANWGYWYFDLWGRGTLVTVSS
VL: not shown
notes: Germline Fab made in E. coli; VH was cloned in Plasmid A (CH1 constant region, His6 and Flag tags) and the kappa VL in Plasmid C (kappa CL); Only the variable domains are tied to this Fab by name
